Assay results: US20260184780A1 (MONASH UNIVERSITY, published 2026)

T1: human PAR4 on isolated human platelets (human, UniProt Q96RI0 18-385)
T1 sequence: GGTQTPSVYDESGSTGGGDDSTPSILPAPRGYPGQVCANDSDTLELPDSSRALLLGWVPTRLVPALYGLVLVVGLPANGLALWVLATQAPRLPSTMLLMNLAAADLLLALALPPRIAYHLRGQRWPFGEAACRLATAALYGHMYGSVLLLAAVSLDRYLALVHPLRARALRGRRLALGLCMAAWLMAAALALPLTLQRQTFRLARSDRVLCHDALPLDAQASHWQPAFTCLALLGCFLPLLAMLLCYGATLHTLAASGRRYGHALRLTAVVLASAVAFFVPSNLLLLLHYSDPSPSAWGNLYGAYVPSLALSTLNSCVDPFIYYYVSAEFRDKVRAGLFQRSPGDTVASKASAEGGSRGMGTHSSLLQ

T2: hPAR4 (naked) peptide (human)
T2 construct: also called native PAR4 peptide; hPAR4 peptide
T2 peptide: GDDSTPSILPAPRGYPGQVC

T3: hPAR1 (Biotin) peptide (human, not fully specified; biotin on the C-terminal lysine (SKB))
T3 construct: also called PAR1 peptide; PAR1 screening peptide
T3 peptide: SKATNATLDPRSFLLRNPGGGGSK

T4: hPAR3 (Biotin) peptide (human, biotin on the C-terminal lysine (SKB))
T4 construct: also called PAR3 peptide; PAR3 screening peptide
T4 peptide: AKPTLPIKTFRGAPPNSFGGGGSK

T5: mPAR4 (naked) peptide (mouse)
T5 construct: T0021 says only 'mouse PAR4'; also called mouse PAR4
T5 peptide: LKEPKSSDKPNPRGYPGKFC

T6: hPAR4 (Biotin) peptide (human, biotin on the C-terminal lysine (SKB))
T6 construct: also called hPAR4-biotinylated peptide; biotin-coupled human PAR4 peptide
T6 peptide: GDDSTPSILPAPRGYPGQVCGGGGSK

T7: hPAR2 (Biotin) peptide (human, not fully specified; biotin on the C-terminal lysine (SKB))
T7 construct: also called PAR2 peptide; PAR2 screening peptide
T7 peptide: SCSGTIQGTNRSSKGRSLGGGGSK

T8: hPAR4 1-9 peptide (human)
T8 construct: Range counted on the hPAR4 immunising peptide; also called peptide 1-9
T8 peptide: GDDSTPSIL

T9: hPAR4 11-20 peptide (human)
T9 construct: Range counted on the hPAR4 immunising peptide; the C-terminal cysteine was removed, so nine residues are given; also called peptide 11-20
T9 peptide: APRGYPGQV


How the values were obtained:
[1] = molecular target: T1, human PAR4 on isolated human platelets; experiment: cell-based or functional assay
hPAR4 (naked) peptide [2] = molecular target: T2, hPAR4 (naked) peptide; experiment: ELISA, hybridoma supernatant
hPAR1 (Biotin) peptide [3] = molecular target: T3, hPAR1 (Biotin) peptide; experiment: ELISA, hybridoma supernatant
hPAR3 (Biotin) peptide [4] = molecular target: T4, hPAR3 (Biotin) peptide; experiment: ELISA, hybridoma supernatant
mPAR4 (naked) peptide = molecular target: T5, mPAR4 (naked) peptide; experiment: ELISA, hybridoma supernatant
hPAR4 (naked) peptide [5] = molecular target: T2, hPAR4 (naked) peptide; experiment: ELISA, purified mAb on hPAR4 peptide
hPAR4 (Biotin) peptide = molecular target: T6, hPAR4 (Biotin) peptide; experiment: SPR Biacore T200, biotin peptide on SA chip, whole mAb as analyte
Method: (§1) The kinetics of the binding interaction between the mAbs and hPAR4 was measured using Surface Plasmon Resonance (SPR; Biacore) by two different methods: 1. Anti-mouse Fc mAb capture method and 2. Streptavidin (SA) chip to capture biotinylated peptide. The ka(on) rate and kd(off) rates and KD were measured and fitted to a Langmuir model using the Biacore evaluation software.

hPAR4 (naked) peptide [6] = molecular target: T2, hPAR4 (naked) peptide; experiment: SPR Biacore T200, mAb captured by anti-mouse Fc, hPAR4 peptide as analyte
Method: A series S CM5 sensor chip was activated with standard EDC/NHS amine coupling chemistry using the manufacturers recommended protocol with Goat anti-mouse IgG Fc. Anti-hPAR4 mAbs were captured at 1-2 ug/ml for 2 minutes at 10 ul/minute on flow cell 2 (FC2) and flow cell 1 (FC1) was used as a reference channel. […] Blank injections of buffer alone were also performed. All injections were performed in duplicate and in a random order.
as §1

hPAR1 (Biotin) peptide [7] = molecular target: T3, hPAR1 (Biotin) peptide; experiment: ELISA, biotinylated peptide on streptavidin plate, absorbance 405 nm
Method: (§2) Biotinylated peptides (hPAR1-4) were diluted in Wash buffer and allowed to bind to the blocked Streptavidin coated wells at 10 ug/ml (100 ul per well) for 1 hour at room temperature with gentle mixing. Wells were washed 3 times as above and purified anti-hPAR4 mAbs prepared at 10 ug/ml in Wash buffer were allowed to bind (100 ul/well) for 1 hour at room temperature with gentle mixing. The plate was washed 3 times as above and anti-mouse Fc conjugated to Alkaline phosphatase (AP) at 0.3 ug/ml (100 ul) was added to the wells for 1 hour as above. Wells were washed 3 times as above and developed with Alkaline Phosphatase substrate as described for the screening supernatant ELISA.
(§3) To further characterise the purified anti-hPAR4 mAb's the specificity of the mAbs to hPAR1, hPAR2, hPAR3 and hPAR4 biotinylated peptides was performed.

hPAR2 (Biotin) peptide = molecular target: T7, hPAR2 (Biotin) peptide; experiment: as above
Method: as §2, §3

hPAR3 (Biotin) peptide [8] = molecular target: T4, hPAR3 (Biotin) peptide; experiment: as above
Method: as §2, §3

[9] = molecular target: T1, human PAR4 on isolated human platelets; experiment: flow cytometry on isolated human platelets
hPAR4 1-9 peptide = molecular target: T8, hPAR4 1-9 peptide; experiment: ELISA, peptide coated on the plate, purified mAb, background subtracted
Method: (§4) Briefly the peptides were coated onto a Nunc maxisorp ELISA plate at 10 ug/ml overnight in coating buffer (0.1 M sodium carbonate pH8.0). Purified mAbs diluted in PBS were used in place of supernatant.

hPAR4 11-20 peptide = molecular target: T9, hPAR4 11-20 peptide; experiment: as above
Method: as §4

Row | platelet aggregation, % of control [1] | fold binding native vs KLH-linked PAR4 peptide (hPAR4 (naked) peptide [2]) [fold] | binding to PAR1 ratio (hPAR1 (Biotin) peptide [3]) [ratio] | binding to PAR3 ratio (hPAR3 (Biotin) peptide [4]) [ratio] | binding to mouse PAR4 ratio (mPAR4 (naked) peptide) [ratio] | binding result (hPAR1 (Biotin) peptide [7]) | binding result (hPAR2 (Biotin) peptide) | binding result (hPAR3 (Biotin) peptide [8]) | GMFI at 10 ug/ml over isotype control [9] | Binder | also measured
1 | > 80 % of control | 6 | 1 | 0.9 | 6.2 |  |  |  |  | 5H.RD2.A7b (antibody, IgG1, V domains shown, also called MoB5H-RD2.A7b; MoB5H D2) VH: EVQLVESGGDLVKPGGSLRLSCSASGFTFFNTWMNWVRQAPGKGLEWVGRVKSKNDGGTKDYAAPVTGRFTISRDDSKDTLYLQMNSLKTEDTAVYYCTTDPHYDFWSAYWGQGTLVTVSS VL: not shown | 
2 |  | 9.2 | 1 | 1 | 9.4 | no binding (tested: 10 ug/ml) | no binding (tested: 10 ug/ml) | no binding (tested: 10 ug/ml) |  | 5I.RG1.D6.C1b (antibody, IgG3, V domains shown, also called 51.RG1; MoB5I G1) VH: QVQLQQWGAGLLKPSETLSLACAISSGSFSTYFWRWIRQPPGKGLEWIGEIIHTGSTTYNPSLKSRVTISVDTSKNQLSLKLSSVTAADTAVYYCAFEYSSSGGYYYGMDVWGQGTTVTVSS VL: DIQMTQSPSSLSASVGDRVTITCRASQSISSYLNWYQQIPGKAPNLLIYAASSLRSGVPSRFSGSGSGTDFTLTISSLQPEDFATYYCQQTYSTPLTFGGGTKVEIK | ELISA Pos:Neg ratio (hPAR4 (naked) peptide [5]): 6.3 ratio; Kd (hPAR4 (Biotin) peptide): 0.36 nM; koff (hPAR4 (Biotin) peptide): 0.000667 s⁻¹; kon (hPAR4 (Biotin) peptide): 1.85e+06 M⁻¹ s⁻¹; Kd (hPAR4 (naked) peptide [6]): 105 nM; koff (hPAR4 (naked) peptide [6]): 0.00146 s⁻¹; kon (hPAR4 (naked) peptide [6]): 14000 M⁻¹ s⁻¹
3 | > 80 % of control |  |  |  |  |  |  |  |  | 5H RG4.H7b.F5b (antibody, IgG2a, V domains shown) VH: QVQLVQSGAEVKKPGASVKVSCKASGYTFTGHYFHWVRQAPGQGLEWMGWINPNSGGTNFAQRFQGRVTMTRVTSISTAYMELSGLRSDDTAVYYCARGYYDTSGYYYAFEFWGQGTLVIVSS VL: not shown | 
4 | > 80 % of control | 11.9 | 1 | 0.9 | 10.4 | no binding (tested: 10 ug/ml) | no binding (tested: 10 ug/ml) | no binding (tested: 10 ug/ml) |  | 5H.RF2.A5b.D3.C2 (antibody, IgG2a, V domains shown, also called MoB5H F2) VH: QVQLQQWGAGLLKPSETLALTCAVYGGSLSDYYWSWIRQPPGKGLEWIGEINHSGTTNYNPSLKSRVTISVDTSKKQFSLKLSSVTAADTAVYYCAIEYSNSRGYYYGMDVWGQGTTVTVSS VL: DIQMTQSPSSLSASAGDRITITCRASQTISNYLNWYQQKPGKAPKLLIYAASSLQSGVPSRFSGSGSGTDFTLTISSLQPEDFASYYCRQNYNTPLTFGGGTKVEIK | ELISA Pos:Neg ratio (hPAR4 (naked) peptide [5]): 8.5 ratio; Kd (hPAR4 (Biotin) peptide): 0.61 nM; koff (hPAR4 (Biotin) peptide): 0.00111 s⁻¹; kon (hPAR4 (Biotin) peptide): 1.84e+06 M⁻¹ s⁻¹; Kd (hPAR4 (naked) peptide [6]): 38 nM; koff (hPAR4 (naked) peptide [6]): 0.00227 s⁻¹; kon (hPAR4 (naked) peptide [6]): 58400 M⁻¹ s⁻¹
5 | < 25 % of control |  |  |  |  | no binding (tested: 10 ug/ml) | no binding (tested: 10 ug/ml) | no binding (tested: 10 ug/ml) | 100 | 5H.RA3.D3b.A2b (antibody, IgG2a, V domains shown, also called MoB5H A3) VH: QVQLVESGGGVVQPGRSLRVSCAASGFTFSSYGMLWVRQAPGKGLEWVAVIWYDGTKKYYADSLKGRFTISRDNSKYTLYLQMNSLRADDTALYFCARKGARGITGLDYWGQGTLVTVSS VL: not shown | 

Continued, binder first:

Row | Binder | platelet aggregation, % of control [1] | fold binding native vs KLH-linked PAR4 peptide (hPAR4 (naked) peptide [2]) [fold] | binding to PAR1 ratio (hPAR1 (Biotin) peptide [3]) [ratio] | binding to PAR3 ratio (hPAR3 (Biotin) peptide [4]) [ratio] | binding to mouse PAR4 ratio (mPAR4 (naked) peptide) [ratio] | binding result (hPAR1 (Biotin) peptide [7]) | binding result (hPAR2 (Biotin) peptide) | binding result (hPAR3 (Biotin) peptide [8]) | GMFI at 10 ug/ml over isotype control [9] | also measured
6 | 5G.RA1.E10.G3 (antibody, IgG2a, V domains shown, also called MoB5G A1) VH: QVQLVESGGGVVQPGRSLRLSCAASGFTFSSYGMHWVRQAPGKGLEWVAVIWYDGSNKYYADSVKGRFTISRDNSKNTLYLQMNSLRAEDTAVYYCARETALVRGVPFDYWGQGTLVTVSS VL: not shown |  |  |  |  |  | no binding (tested: 10 ug/ml) | no binding (tested: 10 ug/ml) | no binding (tested: 10 ug/ml) | 25 | binding result (hPAR4 1-9 peptide): no binding; binding result (hPAR4 11-20 peptide): no binding
7 | 5G RG1.D3.C2b (antibody, IgG1, V domains shown, also called MoB5G G1) VH: QVQLVESGGGVVQPGRSLRLSCVASGFTLSSYGMHWVRQAPGKGLEWVAVIWYDGSSKYYTDSVKGRFDISRDNSKNTLYLQMNILRAEDTAVYYCARETILIGGVPFDYWGQGTLVTVSS VL: EIVLTQSPGTLSLSPGERATLSCGASQSIRSNYLAWYQQKPGQAPRLLIYGASSRATGTPDRFSGSGSGTDFTLTITRLEPEDFALYYCQQYGRSYTFGQGTKLEIK | < 25 % of control | 11.1 | 1.1 | 0.8 | 8.6 |  |  |  |  | 
8 | 5G RD6.D1.E11b (antibody, IgG2a, V domains shown) VH: QVQLVESGGGVVQPGRSLRLSCAASGFAFSSYGMHWVRQAPGKGLEWVAVIWYDGSNRYYADSVKGRFTISRDTSKNTLFLQMNSLRAEDTAVYYCARETAMVRGVPFDYWGQGTLVTVSS VL: not shown | > 80 % of control |  |  |  |  |  |  |  |  | 
9 | 5F RE6.D3.E7 (antibody, IgG2a, V domains shown, also called MoB5F E6) VH: QVQLAESGGGVVQPGRSLRVSCAASGFTFSSYGMHWVRQAPGKGLEWVAVIWYDGTKKYYADSLKGRFTISRDNSKYTLYLQMNSLRADDTALYFCARKGARGITGLDYWGQGTLVTVSS VL: DIQMTQSPSSLSASAGDRITITCRASQSISNYLNWYQQKPGKAPKLLIYAASSLQSGVPSRFSGSGSGTDFTLTISSLQPEDFASYYCRQNYNTPLTFGGGTKVEIK |  | 12 | 1.1 | 0.8 | 12.2 |  |  |  |  | 
10 | 5D.RH4.G7.E6.C7b.G7 (antibody, IgG2a, V domains shown, Human variable regions on mouse constant regions, IgG2a/K) VH: QIQLVESGGGVVQPGRSLRLSCAASGFTFSSDGMHWVRQAPGKGLEWVAVIWFDGRNKYYLDSVKGRFTISRDNSKNTLYLQMNSLRAEDTAVYYCARESSISTRPPFDYWGQGTLVTVSS VL: not shown |  |  |  |  |  | no binding (tested: 10 ug/ml) | no binding (tested: 10 ug/ml) | no binding (tested: 10 ug/ml) | 33 | binding result (hPAR4 1-9 peptide): no binding; binding result (hPAR4 11-20 peptide): no binding
